Like-named read-outs stand apart in the source and are kept apart here.
How the values were obtained:
[1] = target: T1, HCV ORFs (Gal4-DB fusions) (Hepatitis C virus genotype 1b, UniProt Q9WMX2); assay type: binding, HCV genotype 1b, isolate con1; details: human protein as prey
T1 construct: expressed in transfected cells; host or cells: Saccharomyces cerevisiae MAV203 (IMAP1) / AH109 (IMAP2)
Description: (§1) HCV ORFs were transferred from pDONR223 into bait vector (pPC97) to be expressed as Gal4-DB fusions in yeast. Two different screening methods were used (IMAP1 and IMAP2). Both for IMAP1 and IMAP2 strategies and because bait constructs sometimes self-transactivate reporter genes, SD-L-H culture medium were supplemented with 3-aminotriazole (3-AT). Appropriate concentrations of this drug were determined by growing bait strains on SD-L-H medium supplemented with increasing concentrations of 3-AT. […] For IMAP1, bait vectors were introduced in MAV203 yeast strain and both human spleen and foetal brain AD-cDNA libraries (Invitrogen) were screened by transformation as described (7). All primary positive clones (selected on SD-W-L-H+3-AT) were tested by further phenotypic assay using two additional reporter genes: LacZ (X-Gal colorimetric assay) and URA3 (growth assay on 5-FOA supplemented medium). […] AD-cDNA were PCR-amplified and inserts were sequenced to identify interactors. IMAP2 screens were performed by yeast mating, using AH109 and Y187 yeast strains (Clontech (8)). Bait vectors were transformed into AH109 (bait strain) and human spleen and foetal brain AD-cDNA libraries (Invitrogen) were transformed into Y187 (prey strain). Single bait strains were mated with prey strains then diploids were plated on SD-W-L-H+3-AT medium. Positive clones were maintained onto this selective medium for 15 days to eliminate any contaminant AD-cDNA plasmid (9). AD-cDNAs were PCR amplified and inserts were sequenced.
(§2) We have developed a bioinformatic pipeline that assigns each IST to its native human genome transcript. […] Gal4 motif was searched (last 87 bases of GAL4-AD), sequences downstream of this motif were translated into peptides and aligned using BLASTP against the REFSEQ (http://www.ncbi.nlm.nih.gov/RefSeq/) human protein sequence database (release 04/2007). Low-confidence alignments (E value>10^−10, identity <80%) and premature STOP codon containing sequences were eliminated. Only in-frame proteins and high quality sequences were further considered

[2] = test system: HCV ORFs (Gal4-DB fusions); assay type: binding, HCV genotype 1b, isolate con1; details: human protein listed by gene symbol; the value names the HCV protein it interacts with
Description: as §1, §2

[3] = target: T2, GST-tagged viral proteins (Hepatitis C virus genotype 1b, UniProt Q9WMX2); assay: Validation by co-affinity purification (CoAP); assay type: binding, HCV genotype 1b, isolate con1; design: key: +: IMAP validation; −: not validated; NA: non assayable due to default of protein expression or to cellular protein directly interacting with GST
T2 construct: expressed in transfected cells; host or cells: HEK-293T
Source text: C. Validation of Y2H interactions by co-affinity purification assay. Nine co-AP positive assays are shown, representing: NS5A-SORBS2 (1), NS3-CALCOCO2 (2), NS5A-BIN1 (3), NS5A-MOBK1B (4), NS5A-EFEMP1 (5), NS3-PSMB9 and NS5A-PSMB9 (6), NS5A-PPPIRI3L (7), NS3-RASAL2 (8). After pull-down with GST tagged viral baits (+) or with negative control GST alone (−), cellular preys are identified with anti-Flag antibody. Anti-GST antibody identifies either GST alone or GST-tagged viral baits. Expression of cellular preys in cell lysate is controlled by anti-Flag (bottom panel). […]
A random pool of 59 IMAP Y2H interactions was chosen for CoAP assays. Cellular ORFs (interacting domains found in Y2H screens) were cloned by recombinational cloning from a pool of human cDNA library or the MGC cDNA plasmids using KOD polymerase (Toyobo) into pDONR207 (Invitrogen). After validation by sequencing, these ORFs were transferred to pCi-neo-3xFLAG gateway-converted, and HCV ORFs were transferred into pDEST27 (GST fusion in N-term). HEK-293T cells were then co-transfected (JetPei, Polyplus) by each pair of plasmid encoding interacting proteins. Controls are GST alone against 3xFLAG-tagged preys. Two days after transfection, cells were harvested and lysed (0.5% NP-40, 20 mM Tris-HCl (pH 8.0), 180 mM NaCl, 1 mM EDTA, and complete protease inhibitor cocktail). Cell lysates were cleared by centrifugation for 20 min at 13,000 rpm at 4° C. and soluble protein complexes were purified using Glutathione Sepharose 4B beads (GE Healthcare). Beads were then washed extensively four times with lysis buffer and proteins were separated on SDS-PAGE and transferred to nitrocellulose membrane. GST-tagged viral proteins and 3xFLAG-tagged cellular proteins were detected using standard immunoblotting techniques using anti-GST (Covance) and anti-FLAG M2 (Sigma) monoclonal antibodies (21).

[4] = test system: HCV RNA replication; assay: HCV RNA replication under bile acids / FXR ligands; assay type: cell-based, Hepatitis C virus
[5] = target: T3, HCV proteins (Hepatitis C virus genotype 1b, UniProt Q9WMX2); assay: Validation by Y2H pairwise matrices; assay type: binding; details: validation of interaction with HCV protein NS3;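 also: yeast two-hybrid pairwise tests of interactions first found in Y2H screens of HCV bait proteins against human cDNA libraries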
T3 construct: expressed in transfected cells

[6] = interaction with HCV protein NS5A
[7] = validation of interaction with HCV protein NS3
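For IMAP Y2H IMAP1 (number of IST) in this document: yeast two-hybrid screens using HCV genotype 1b proteins fused to Gal4-DB as baits against prey cDNA libraries from human spleen and foetal brain, IMAP1 via transformation and IMAP2 via mating.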
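For IMAP Y2H IMAP2 (number of IST) in this document: yeast two-hybrid screens using HCV genotype 1b proteins fused to Gal4-DB as baits against prey cDNA libraries from human spleen and foetal brain, IMAP1 via transformation and IMAP2 via mating.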
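For Interaction with viral protein in this document: yeast two-hybrid screens using HCV genotype 1b proteins fused to Gal4-DB as baits against prey cDNA libraries from human spleen and foetal brain, IMAP1 via transformation and IMAP2 via mating.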

T3 sequence (Q9WMX2 1027-1657): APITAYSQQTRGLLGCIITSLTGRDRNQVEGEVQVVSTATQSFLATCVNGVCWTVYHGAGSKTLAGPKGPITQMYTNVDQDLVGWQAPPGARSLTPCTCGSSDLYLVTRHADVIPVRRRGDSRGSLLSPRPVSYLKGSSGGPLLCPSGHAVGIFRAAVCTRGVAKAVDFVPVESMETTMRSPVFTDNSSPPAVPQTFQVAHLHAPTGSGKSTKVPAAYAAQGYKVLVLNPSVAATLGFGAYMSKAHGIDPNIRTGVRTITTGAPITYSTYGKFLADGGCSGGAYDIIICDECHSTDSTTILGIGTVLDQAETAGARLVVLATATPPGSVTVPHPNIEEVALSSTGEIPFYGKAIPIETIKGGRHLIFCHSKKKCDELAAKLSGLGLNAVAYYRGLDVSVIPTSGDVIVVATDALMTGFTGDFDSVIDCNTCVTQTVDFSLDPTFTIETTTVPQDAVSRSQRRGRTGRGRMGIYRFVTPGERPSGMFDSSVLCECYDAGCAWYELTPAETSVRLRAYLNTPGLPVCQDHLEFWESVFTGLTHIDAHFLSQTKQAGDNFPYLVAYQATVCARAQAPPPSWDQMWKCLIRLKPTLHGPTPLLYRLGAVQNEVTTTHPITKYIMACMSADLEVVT

Row | Molecule | Interaction with viral protein [2] | IMAP Y2H IMAP2 (number of IST) ([1]; HCV protein NS3 as bait) | CoAP [3, 7] | IMAP Y2H IMAP1 (number of IST) ([1]; HCV protein NS3 as bait) | Y2H matrices [5] | also measured
1 | PPP1R13L | NS5A |  |  |  |  | IMAP Y2H IMAP2 (number of IST) ([1]; HCV protein NS5A as bait): 2; CoAP [3, 6]: +
2 | C/C=C1\C(=O)C[C@H]2[C@@H]3CCC4=CC(=O)CC[C@]4(C)[C@H]3CC[C@]12C [guggulsterone] |  |  |  |  |  | effect on the up-regulation of HCV replication induced by BAs ([4]; FXR antagonism, in presence of BAs): blocked the up-regulation induced by BAs; inhibition of basal level of HCV replication ([4]; guggulsterone alone): tenfold
3 | KPNA1 | NS3 | 8 | + |  |  | 
4 | CALCOCO2 | NS3 | 2 | + | 5 | + | 
5 | ZNF646 |  |  |  |  |  | IMAP Y2H IMAP2 (number of IST) ([1]; HCV protein NS5A as bait): 2; CoAP [3, 6]: −
6 | deoxycholate |  |  |  |  |  | up-regulation of HCV RNA replication [4]: more than tenfold
7 | ACTN2 | NS3 | 6 | − | 10 | + | 
8 | SMURF2 | NS3 and NS2 | 4 | + |  |  | 
9 | ITGB4 | NS3 |  |  | 7 | + | 
10 | RUSC2 | NS3 | 1 |  | 21 | + | 
11 | LAMC3 | NS3 |  |  | 1 | + | 
12 | KHDRBS1 | NS3 |  |  | 4 | + | 
13 | NCAN | NS3 |  |  | 1 | + | 

— patent publication US20110091994A1, “Methods for Screening Compounds for Treating and/or Preventing an Hepatitis C Virus Infection” (priority 2008, published 2011)
